From patent US20230265179A1 (TWIST BIOSCIENCE, published 2023)

How the values were obtained:
[1] = biological target: T1, TSLP (UniProt Q969D9 29-159); test: SPR, Carterra LSA, antibody amine-coupled, 1:1 model
T1 construct: Soluble analyte of the SPR assay
Procedure: SPR experiments were performed on a Carterra LSA SPR biosensor equipped with a HC30M chip at 25° C. in HBS-TE. Antibodies were diluted to 10 μg/mL and amine-coupled to the sensor chip by EDC/NHS activation, followed by ethanolamine HCl quenching. Increasing concentrations of analyte were flowed over the sensor chip in HBS-TE with 0.5 mg/mL BSA with 5-minute association and 15-minute dissociation. Following each injection cycle the surface was regenerated with 2× 30-second injections of IgG elution buffer (Thermo). Data were analyzed in Carterra's Kinetics Tool software with 1:1 binding model.

[2] = biological target: T2, TSLP on over-expressing Expi293 cells (UniProt Q969D9 29-159, limits assumed); test: flow cytometry, 100 nM, TSLP over-expressing Expi293 over parent cells
T2 construct: whole, on cells; Target of the flow cytometry assay; also called cytokine over-expressing Expi293 cells
Procedure: (§1) All incubations and washes were in buffer containing PBS+1% BSA. MFI Ratio is defined by the mean fluorescence intensity (MFI) of the cytokine over-expressing Expi293 cell over the Expi293 parent cell. […] EC50 was calculated in GraphPad Prism.

[3] = biological target: T2, TSLP on over-expressing Expi293 cells; test: flow cytometry titration on TSLP over-expressing Expi293 cells
Procedure: as §1

Binder | Kd [1] | koff [1] | kon [1] | 100 nM (MFI Ratio) [2] | EC50 [3]
TSLP-10 (VHH, VHH-Fc (IgG2 Fc); not shown: IgG2 Fc of the VHH-Fc format) VHH: EVQLVESGGGLVQPGGSLRLSCAASGFTLDDYVMGWFRQAPGKEREGVATIAGGGTYYADSVKGRFTISADNSKNTAYLQMNSLKPEDTAVYYCASSGSYYPGHFEWGQGTLVTVSS | 8.43 nM | 0.000805 s⁻¹ | 95500 M⁻¹ s⁻¹ | 67.8 MFI ratio | 1.4 nM
TSLP-32 (VHH, VHH-Fc (IgG2 Fc); not shown: IgG2 Fc of the VHH-Fc format) VHH: EVQLVESGGGLVQPGGSLRLSCAASGNSFNNYVMGWFRQAPGKEREMVSAIFSDGSTYYADSVKGRFTISADNSKNTAYLQMNSLKPEDTAVYYCVRDSGSVSGQTFDSWGQGTLVTVSS | 7.24 nM | 0.00121 s⁻¹ | 167000 M⁻¹ s⁻¹ | 195 MFI ratio | 0.45 nM
TSLP-5 (VHH, VHH-Fc (IgG2 Fc); not shown: IgG2 Fc of the VHH-Fc format) VHH: EVQLVESGGGLVQPGGSLRLSCAASGVTLDTDAMGWFRQAPGKEREFVAWINNRGTTDYADSVKGRFTISADNSKNTAYLQMNSLKPEDTAVYYCARVSQWLLGGPANWGQGTLVTVSS | 24.5 nM | 0.000759 s⁻¹ | 31000 M⁻¹ s⁻¹ | 149 MFI ratio | 0.73 nM
TSLP-9 (VHH, VHH-Fc (IgG2 Fc); not shown: IgG2 Fc of the VHH-Fc format) VHH: EVQLVESGGGLVQPGGSLRLSCAASGPMSSSAVMGWFRQAPGKEREAVALGWSGGSTYYADSVKGRFTISADNSKNTAYLQMNSLKPEDTAVYYCAIHTSREIWGQGTLVTVSS | 31 nM | 0.00151 s⁻¹ | 48600 M⁻¹ s⁻¹ | 8.6 MFI ratio | 0.73 nM
TSLP-38 (VHH, VHH-Fc (IgG2 Fc); not shown: IgG2 Fc of the VHH-Fc format) VHH: EVQLVESGGGLVQPGGSLRLSCAASGFSLDYYAMGWFRQAPGKERELVSAIFSDGSALYADSVKGRFTISADNSKNTAYLQMNSLKPEDTAVYYCAKDRDTGIGAYDWGQGTLVTVSS | 10.1 nM | 0.000487 s⁻¹ | 48300 M⁻¹ s⁻¹ | 89.3 MFI ratio | 0.31 nM
TSLP-36 (VHH, VHH-Fc (IgG2 Fc); not shown: IgG2 Fc of the VHH-Fc format) VHH: EVQLVESGGGLVQPGGSLRLSCAASGGTLDDYVMGWFRQAPGKEREFVGFIGSDGSTLYADSVKGRFTISADNSKNTAYLQMNSLKPEDTAVYYCTTEWDGYWGQGTLVTVSS | 3.39 nM | 0.000487 s⁻¹ | 144000 M⁻¹ s⁻¹ | 100 MFI ratio | 0.11 nM
TSLP-40 (VHH, VHH-Fc (IgG2 Fc); not shown: IgG2 Fc of the VHH-Fc format) VHH: EVQLVESGGGLVQPGGSLRLSCAASGLTFSRYAMGWFRQAPGKEREFVSAIFSDGSTYYADSVKGRFTISADNSKNTAYLQMNSLKPEDTAVYYCARGPNWFDPWGQGTLVTVSS | 19.3 nM | 0.000493 s⁻¹ | 25600 M⁻¹ s⁻¹ | 288 MFI ratio | 0.14 nM
TSLP-17 (VHH, VHH-Fc (IgG2 Fc); not shown: IgG2 Fc of the VHH-Fc format) VHH: EVQLVESGGGLVQPGGSLRLSCAASGTTFEIYPMGWFRQAPGKEREFVAAIHWNSGITYYADSVKGRFTISADNSKNTAYLQMNSLKPEDTAVYYCARDVFYFDSSGYSLWGQGTLVTVSS | 11.2 nM | 0.00042 s⁻¹ | 37500 M⁻¹ s⁻¹ | 154 MFI ratio | 0.12 nM
TSLP-121 (antibody, V domains shown) VH: QVQLVQSGAEVKKPGSSVKVSCKASGGSFSSYAISWVRQAPGQGLEWMGGIIPMNYAQKFQGRVTITADESTSTAYMELSSLRSEDTAVYYCARQLAAALVYWGQGTLVTVSS VL: EIVLTQSPGTLSLSPGERATLSCRASQNVNTRYLAWYQQKPGQAPRLLIYAASSRATGIPDRFSGSGSGTDFTLTISSLEPEDFAVYYCQQYESSPYNFGQGTKVEIK | 2.96 nM | 0.00175 s⁻¹ | 589000 M⁻¹ s⁻¹ | 37.5 MFI ratio | 1.35 nM
TSLP-2 (VHH, VHH-Fc (IgG2 Fc); not shown: IgG2 Fc of the VHH-Fc format) VHH: EVQLVESGGGLVQPGGSLRLSCAASGLTFSTTVMGWFRQAPGKEREWVATIAGDGSTFYADSVKGRFTISADNSKNTAYLQMNSLKPEDTAVYYCADINEDWGQGTLVTVSS | 6.49 nM | 0.0018 s⁻¹ | 278000 M⁻¹ s⁻¹ | 218 MFI ratio | 0.43 nM
TSLP-16 (VHH, not shown: IgG2 Fc of the VHH-Fc format) VHH: EVQLVESGGGLVQPGGSLRLSCAASGFSLDDYAMGWFRQAPGKEREGVATIAGGYTYYADSVKGRFTISADNSKNTAYLQMNSLKPEDTAVYYCAAFDGYTGSDWGQGTLVTVSS | 11.9 nM | 0.00143 s⁻¹ | 120000 M⁻¹ s⁻¹ | 10 MFI ratio | 0.58 nM
TSLP-22 (VHH, VHH-Fc (IgG2 Fc); not shown: IgG2 Fc of the VHH-Fc format) VHH: EVQLVESGGGLVQPGGSLRLSCAASGRTFRSYVMGWFRQAPGKERELVSAIFSDGSTLYADSVKGRFTISADNSKNTAYLQMNSLKPEDTAVYYCAREDSSSGWFDYWGQGTLVTVSS | 12.1 nM | 0.00106 s⁻¹ | 88200 M⁻¹ s⁻¹ | 90.4 MFI ratio | 0.66 nM
TSLP-26 (VHH, VHH-Fc (IgG2 Fc); not shown: IgG2 Fc of the VHH-Fc format) VHH: EVQLVESGGGLVQPGGSLRLSCAASGLTFSSYIMGWFRQAPGKERELVSAIFSDGSTLYADSVKGRFTISADNSKNTAYLQMNSLKPEDTAVYYCARDDYGGNFFDYWGQGTLVTVSS | 5.09 nM | 0.000228 s⁻¹ | 44700 M⁻¹ s⁻¹ | 313 MFI ratio | 3.37 nM
TSLP-4 (VHH, VHH-Fc (IgG2 Fc); not shown: IgG2 Fc of the VHH-Fc format) VHH: EVQLVESGGGLVQPGGSLRLSCAASGFTFSSYWMGWFRQAPGKERELVSAIFSDGSTMYADSVKGRFTISADNSKNTAYLQMNSLKPEDTAVYYCTRDSTDTRYWGQGTLVTVSS | 7.14 nM | 0.000542 s⁻¹ | 75900 M⁻¹ s⁻¹ | 157 MFI ratio | 0.18 nM
TSLP-13 (VHH, VHH-Fc (IgG2 Fc); not shown: IgG2 Fc of the VHH-Fc format) VHH: EVQLVESGGGLVQPGGSLRLSCAASGFTFDDNDMGWFRQAPGKEREFVGAISWSGNTTYYKYYADSVKGRFTISADNSKNTAYLQMNSLKPEDTAVYYCSNQYGWGQGTLVTVSS | 41.3 nM | 0.0013 s⁻¹ | 31600 M⁻¹ s⁻¹ | 120 MFI ratio | 0.37 nM
TSLP-30 (VHH, VHH-Fc (IgG2 Fc); not shown: IgG2 Fc of the VHH-Fc format) VHH: EVQLVESGGGLVQPGGSLRLSCAASGRTFSTYGMGWFRQAPGKEREFVAAMISWNGGSSTYYADSVKGRFTISADNSKNTAYLQMNSLKPEDTAVYYCTTDPAEFYDSSTYYPAPFDYWGQGTLVTVSS | 63.2 nM | 0.000996 s⁻¹ | 15800 M⁻¹ s⁻¹ | 105 MFI ratio | 0.43 nM
TSLP-3 (VHH, VHH-Fc (IgG2 Fc); not shown: IgG2 Fc of the VHH-Fc format) VHH: EVQLVESGGGLVQPGGSLRLSCAASGRIFSTYFMGWFRQAPGKERELVSAIFSDGSTYYADSVKGRFTISADNSKNTAYLQMNSLKPEDTAVYYCALDLSTVRWGQGTLVTVSS | 19.1 nM | 0.00114 s⁻¹ | 59900 M⁻¹ s⁻¹ | 80.1 MFI ratio | 0.37 nM
TSLP-23 (VHH, VHH-Fc (IgG2 Fc); not shown: IgG2 Fc of the VHH-Fc format) VHH: EVQLVESGGGLVQPGGSLRLSCAASGRIFSTYFMGWFRQAPGKERELVSAIFSDGSTYYADSVKGRFTISADNSKNTAYLQMNSLKPEDTAVYYCALDLSTVRWGQGTLVTVSS | 19.1 nM | 0.00131 s⁻¹ | 68500 M⁻¹ s⁻¹ | 226 MFI ratio | 0.12 nM
TSLP-14 (VHH, VHH-Fc (IgG2 Fc); not shown: IgG2 Fc of the VHH-Fc format) VHH: EVQLVESGGGLVQPGGSLRLSCAASGSIFSSYWMGWFRQAPGKERELVSAIFSDGSTYYADSVKGRFTISADNSKNTAYLQMNSLKPEDTAVYYCAKDYFGTGWGQGTLVTVSS | 31.4 nM | 0.0016 s⁻¹ | 51000 M⁻¹ s⁻¹ | 20.3 MFI ratio | 0.18 nM
TSLP-35 (VHH, VHH-Fc (IgG2 Fc); not shown: IgG2 Fc of the VHH-Fc format) VHH: EVQLVESGGGLVQPGGSLRLSCAASGCIFSTYFMGWFRQAPGKERELVSAIFSDGSTYYADSVKGRFTISADNSKNTAYLQMNSLKPEDTAVYYCALDWNLNRWGQGTLVTVSS | 20 nM | 0.00145 s⁻¹ | 72600 M⁻¹ s⁻¹ | 108 MFI ratio | 0.28 nM
TSLP-12 (VHH, VHH-Fc (IgG2 Fc); not shown: IgG2 Fc of the VHH-Fc format) VHH: EVQLVESGGGLVQPGGSLRLSCAASGFIFSSYWMGWFRQAPGKERELVSAIFSDGSTYYADSVKGRFTISADNSKNTAYLQMNSLKPEDTAVYYCAIDWYLNSWGQGTLVTVSS | 13.9 nM | 0.00137 s⁻¹ | 98700 M⁻¹ s⁻¹ | 76.2 MFI ratio | 0.5 nM
